The results in this text go back to publication PMC10097714, “ALS-linked TDP-43 mutations interfere with the recruitment of RNA recognition motifs to G-quadruplex RNA”.

Data set [1] concerns the target His-tagged RRM segment of TDP-43 (101-261aa) (UniProt Q13148). Kind of data set: GST pull-down (glutathione sepharose beads) with western blotting, band quantification. Particulars: three experiments, parent: est. 1.0, read off a plot.
Data set [2] has as its target T1, TDP-43 WT full-length (human, UniProt Q13148 1-414). Kind of data set: EMSA (agarose); lower affinity than PSD-95 G4; EMSA: 20 mM PIPES-NaOH pH 6.8, 150 mM NaCl, 0.8 mM MgCl2, 10% glycerol, 0.1 mg/ml BSA, 0.1 mg/ml poly-dI-dC, 25 C, gel 0.5x TBE pH 6.8; SPR: 20 mM PIPES pH 6.8, 12 mM KCl, 0.8 mM MgCl2, 150 mM NaCl, 0.05% Tween-20, 25 C; UV cross-linking: EMSA buffer without poly-dI-dC; pull-down: PIPES pH 6.8, 145 mM NaCl, 5.4 mM KCl, 0.8 mM MgCl2, 1.8 mM CaCl2, 0.05% Tween-20, 10% …. Particulars: protein: recombinant; tags: untagged; chain copies: 2; label: 5' Cy3, 3' Alexa Fluor 647; parallel G4.

Data set [3] concerns the target T2, GST-RRM (human, UniProt Q13148 101-261). The description is as above. The note with it: protein: recombinant; tags: GST; label: 5' Cy3, 3' Alexa Fluor 647; parallel G4.
The target of data set [4] is T1, TDP-43 WT full-length. The experiment in a line: EMSA (agarose); EMSA: 20 mM PIPES-NaOH pH 6.8, 150 mM NaCl, 0.8 mM MgCl2, 10% glycerol, 0.1 mg/ml BSA, 0.1 mg/ml poly-dI-dC, 25 C, gel 0.5x TBE pH 6.8; SPR: 20 mM PIPES pH 6.8, 12 mM KCl, 0.8 mM MgCl2, 150 mM NaCl, 0.05% Tween-20, 25 C; UV cross-linking: EMSA buffer without poly-dI-dC; pull-down: PIPES pH 6.8, 145 mM NaCl, 5.4 mM KCl, 0.8 mM MgCl2, 1.8 mM CaCl2, 0.05% Tween-20, 10% glycerol, 4 C. Particulars: protein: recombinant; tags: untagged; chain copies: 2; label: 5' Cy3, 3' Alexa Fluor 647; parallel G4, A loop.

In data set [5] the target is T2, GST-RRM. Kind of data set: EMSA (agarose); higher affinity than CaMKIIa G4; EMSA: 20 mM PIPES-NaOH pH 6.8, 150 mM NaCl, 0.8 mM MgCl2, 10% glycerol, 0.1 mg/ml BSA, 0.1 mg/ml poly-dI-dC, 25 C, gel 0.5x TBE pH 6.8; SPR: 20 mM PIPES pH 6.8, 12 mM KCl, 0.8 mM MgCl2, 150 mM NaCl, 0.05% Tween-20, 25 C; UV cross-linking: EMSA buffer without poly-dI-dC; pull-down: PIPES pH 6.8, 145 mM NaCl, 5.4 mM KCl, 0.8 mM MgCl2, 1.8 mM CaCl2, 0.05% Tween-20, 10% …. Particulars: protein: recombinant; tags: GST; label: 5' Cy3, 3' Alexa Fluor 647; parallel G4, A loop.

Data set [6] addresses T2, GST-RRM. Kind of data set: EMSA (agarose); EMSA: 20 mM PIPES-NaOH pH 6.8, 150 mM NaCl, 0.8 mM MgCl2, 10% glycerol, 0.1 mg/ml BSA, 0.1 mg/ml poly-dI-dC, 25 C, gel 0.5x TBE pH 6.8; SPR: 20 mM PIPES pH 6.8, 12 mM KCl, 0.8 mM MgCl2, 150 mM NaCl, 0.05% Tween-20, 25 C; UV cross-linking: EMSA buffer without poly-dI-dC; pull-down: PIPES pH 6.8, 145 mM NaCl, 5.4 mM KCl, 0.8 mM MgCl2, 1.8 mM CaCl2, 0.05% Tween-20, 10% glycerol, 4 C. Particulars: protein: recombinant; tags: GST; label: 3' Alexa Fluor 647.

The target of data set [7] is T1, TDP-43 WT full-length. Kind of data set: EMSA (agarose); up to 10x protein; EMSA: 20 mM PIPES-NaOH pH 6.8, 150 mM NaCl, 0.8 mM MgCl2, 10% glycerol, 0.1 mg/ml BSA, 0.1 mg/ml poly-dI-dC, 25 C, gel 0.5x TBE pH 6.8; SPR: 20 mM PIPES pH 6.8, 12 mM KCl, 0.8 mM MgCl2, 150 mM NaCl, 0.05% Tween-20, 25 C; UV cross-linking: EMSA buffer without poly-dI-dC; pull-down: PIPES pH 6.8, 145 mM NaCl, 5.4 mM KCl, 0.8 mM MgCl2, 1.8 mM CaCl2, 0.05% Tween-20, 10% glycerol, 4 C. The note with it: protein: recombinant; tags: untagged; chain copies: 2; label: 3' Alexa Fluor 647.

As to “GST-fused wild-type glycine-rich (GR) segment of TDP-43 G287S”, the ratio to parent in data set [1] (+ CaMKIIα G4 RNA) stood at 0.52; in data set [1] (+ PSD-95 G4 RNA), 0.31.
The corresponding values for “GST-fused wild-type glycine-rich (GR) segment of TDP-43 M337V” are 0.26 and 0.2.
UGGGGGGGGCGGGUGGGA (structured_RNA) [Cy3-CaMKII-Ax647]: the binding result in the data set with TDP-43 WT full-length [2] and with GST-RRM [3] was “binds” each time.
Consider GGGGAAAAGGGAGGGAUGGG (structured_RNA) [Cy3-PSD-Ax647], for which the binding result with TDP-43 WT full-length [4] and with GST-RRM [5] was “binds” in each case.
Turning to UGUGUGUGUGUGUGUGUGUG (ssRNA) [UG10-Ax647], the binding result is on record as “binds” with GST-RRM [6] and “no binding” with TDP-43 WT full-length [7].
